Assay results: patent US20260137799A1, “ANTI-MUC1* ANTIBODY DRUG COMPLEXES AND USES THEREOF” (Minerva Biotechnologies Corporation, priority 2023, published 2026)

What was measured:
T47D [1] = experiment: xCELLigence impedance cytotoxicity, T47D; type: cell-based, human; conditions: xCELLigence; 40-120 hours incubation; read-out: IC50, T47D
Method in brief: (§1)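 Adherent target cells plated at 5000/well on electrode plates were grown 24 h, then exposed to serially diluted ADCs in growth medium at 37° C/5% CO2. Killing was followed as real-time impedance loss over 40-120 h, normalized to 1% triton or 1 μM Taxol as 100% kill.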

HPAFII = experiment: PrestoBlue live/dead cell assay, HPAFII; type: cell-based, human; conditions: Presto Blue; 72-120 hour incubation
Description: (§2) Another method of measuring the killing activity of ADCs against target cancer cells is to use the PrestoBlue live/dead cell assay (ThermoFisher). Target cancer cells were seeded in a black-walled, clear-bottom 96-well tissue culture plate at a density of 5000 cells/well (100 μL of a 50,000 cells/mL stock) and incubated overnight in a 37° C./5% CO2 incubator. ADCs were prepared as a 2× solution in corresponding cancer cell growth media and 100 μL of each concentration was added to target cancer cells. As a positive control (100% killing) cancer cells were treated with 1 μM Taxol instead of ADC. After 72 hour-120 hour incubation in a 37° C./5% CO2 incubator, cell viability was measure by fluorescence using the PrestoBlue HS assay (ThermoFisher). Briefly, after the incubation period, 20 μL of PrestoBlue HS solution was added. Fluorescence (Ex 560 nm/Em 590 nm) was recorded after 30-90 min. incubation using a Tecan plate reader. Percentage viability was determined by PrestoBlue HS staining and normalized to 1 μM taxol treated cells.
(§3) The normalized fluorescence values were imported into the graph program, Sigma Plot, data plotted as ADC concentration versus normalized fluorescence signal and curve fitted using a four-parameter Hill equation: f=y0+a*x^b/(c^b+x^b) to calculate IC50 values. IC50 values for the ADCs were generally consistent between the xCELLigence and Presto Blue assays.

HPAF-II = experiment: xCELLigence impedance cytotoxicity, HPAF-II; type: cell-based, human; conditions: xCELLigence; 40-120 hours incubation; read-out: IC50, HPAF-II
Description: (§4) An xCELLigence RTCA MP Instrument (Agilent) was used to assess real-time killing of target cancer cells). In the xCELLigence system, target cancer cells, which are adherent, are plated onto electrode array 96-well plates. Adherent cells insulate the electrode and increase the impedance. The number of adherent cancer cells is directly proportional to impedance. […] Therefore, increasing impedance reflects the growth of the cancer cells and decreasing impedance reflects the killing of the cancer cells.
(§5) Target Cancer cells (Table 9) were seeded onto a multi-electrode well plate at a density of 5000 cells/well (100 μL of a 50,000 cells/mL stock) and incubated for 24 hr in a 37° C./5% CO2 incubator. ADCs were prepared as a 2× solution in corresponding growth media and 100 μL of each concentration was added to target cells. As a positive control (100% cell killing) cells were treated with either 1% triton or 1 μM Taxol instead of ADC. After 40-120 hours incubation in a 37° C./5% CO2 incubator cell killing was assessed. In this assay, impedance is measured in real-time. When the adherent cancer cells are killed and come off the electrode surface, impedance (insulation) decreases.

T47D-MUC1* 15% [2] = experiment: xCELLigence impedance cytotoxicity, T47D-MUC1* 15%; type: cell-based, human; conditions: 40-120 hours incubation
Description: as §4, §5

HPAFII-MUC1* = experiment: PrestoBlue live/dead cell assay, HPAFII-MUC1*; type: cell-based, human; conditions: Presto Blue; 72-120 hour incubation
Description: as §2, §3

DU-145 [3] = experiment: PrestoBlue live/dead cell assay, DU-145; type: cell-based, human; conditions: Presto Blue; 72-120 hour incubation
Description: as §2, §3

T47D xenograft tumors = experiment: T47D breast cancer xenograft; type: in vivo, NOD/SCID mice; conditions: intraperitoneal; MMAE ADCs 5-10 mg/kg Days 7, 14, 20; deruxtecan/exatecan ADCs 20 mg/kg weekly x7
Description: (§6) For breast cancer xenografts, female NOD/SCID mice (weight 18-22 g, 6-8 weeks old, Charles River Laboratories) previously implanted with a 90-day release estrogen pellet (Innovative Research Laboratories) were subcutaneously injected under isoflurane anesthesia (ISOTHESIA, 250 ml (HENRY SCHEIN, NDC: 11695-6776-2) with one million luciferase-positive T47D breast cancer cells expressing low levels of MUC1*(ATCC) or one million luciferase-positive T47D-MUC1* cells overproducing MUC1* using a BD 26G Insulin Syringes with Detachable Needle (Fisher cat: 329652) or BD 28G Lo-Dose U-100 Insulin Syringes (Fisher cat: 329461).
(§7) Tumor volume was measured from bioluminescence images acquired with a Xenogen IVIS-Spectrum system (Perkin Elmer). Mice were injected […] into the scruff of the neck with 150 ul, 30 mg/mL, D-Luciferin (XenoLight™ D-Luciferin Potassium Salt; PerkinElmer P/N 122799), placed under isoflurane anesthesia, and photographed within 10 minutes of the Leciferin injection. Data was expressed graphically as Radiance (photons/sec) as a function of days post-tumor implantation.
(§8) Tumor mass was determined from tumors excised from mice receiving T47D cells on Day 95 and mice receiving T47D-MUC1* cells on Day 96. […]

T47D [4] = experiment: PrestoBlue live/dead cell assay, T47D; type: cell-based, human; conditions: Presto Blue; 72-120 hour incubation
Description: as §2, §3

T47D-MUC1* [5] = experiment: xCELLigence impedance cytotoxicity, T47D-MUC1*; type: cell-based, human; conditions: xCELLigence; 40-120 hours incubation; read-out: IC50, T47D-MUC1*
Description: as §4, §5

HPAF-II MUC1* = experiment: xCELLigence impedance cytotoxicity, HPAF-II MUC1*; type: cell-based, human; conditions: xCELLigence; 40-120 hours incubation; read-out: IC50, HPAF-II MUC1*
Description: as §4, §5

H1975 = experiment: PrestoBlue live/dead cell assay, H1975; type: cell-based, human; conditions: Presto Blue; 72-120 hour incubation
Description: as §2, §3

[6] = tested on: T47D-MUC1* xenograft tumors; experiment: T47D-MUC1* breast cancer xenograft; type: in vivo, NOD/SCID mice; conditions: intraperitoneal; MMAE ADCs 5-10 mg/kg Days 7, 14, 20; deruxtecan/exatecan ADCs 20 mg/kg weekly x7
Description: as §6, §7, §8

T47D-MUC1* 15% [7] = experiment: PrestoBlue live/dead cell assay, T47D-MUC1* 15%; type: cell-based, human; conditions: Presto Blue; 72-120 hour incubation
Description: as §2, §3

T47D-MUC1* [8] = experiment: PrestoBlue live/dead cell assay, T47D-MUC1*; type: cell-based, human; conditions: Presto Blue; 72-120 hour incubation
Description: as §2, §3

NCI-H1975 = experiment: xCELLigence impedance cytotoxicity, NCI-H1975; type: cell-based, human; conditions: xCELLigence; 40-120 hours incubation; read-out: IC50, NCI-H1975
Method in brief: as §1

DU-145 [9] = experiment: xCELLigence impedance cytotoxicity, DU-145; type: cell-based, human; conditions: 40-120 hours incubation
Description: as §4, §5

B1: C2 MC-PEG8-VA-PAB exatecan (conjugate, listed as Mus sp.)
heavy: EVQLEESGGGLVKPGGSLKLSCAASGFTFSGYAMSWVRQTPEKRLEWVATISSGGTYIYYPDSVKGRFTISRDNAKNTLYLQMSSLRSEDTAMYYCARLGGDNYYEYFDVWGAGTTVTVSSAKTTPPSVYAKTTPPSVYPLAPGSAAQTNSMVTLGCLVKGYFPEPVTVTWNSGSLSSGVHTFPAVLQSDLYTLSSSVTVPSSTWPSETVTCNVAHPASSTKVDKKIVPRDCGCKPCICTVPEVSSVFIFPPKPKDVLTITLTPKVTCVVVDISKDDPEVQFSWFVDDVEVHTAQTQPREEQFNSTFRSVSELPIMHQDWLNGKEFKCRVNSAAFPAPIEKTISKTKGRPKAPQVYTIPPPKEQMAKDKVSLTCMITDFFPEDITVEWQWNGQPAENYKNTQPIMDTDGSYFVYSKLNVQKSNWEAGNTFTCSVLHEGLHNHHTEKSLSHSPGK
light: DIVITQSTASLGVSLGQRATISCRASKSVSTSGYSYMHWYQQRPGQPPKLLIYLASNLESGVPARFSGSGSGTDFTLNIHPVEEEDAATYYCQHSRELPFTFGGGTKLEIKRADAAPTVSADAAPTVSIFPPSSEQLTSGGASVVCFLNNFYPKDINVKWKIDGSERQNGVLNSWTDQDSKDSTYSMSSTLTLTKDEYERHNSYTCEATHKTSTSPIVKSFNRNEC
modifications: MC-PEG8-VA-PAB-exatecan
notes: ADC: antibody C2 conjugated via MC-PEG8-VA-PAB linker to exatecan
B1 showed an IC50 (T47D [1]) of 112 nM, an IC50 (HPAFII) of 180 nM and an IC50 (HPAF-II) of 86 nM. For the same molecule, the IC50 (T47D-MUC1* 15% [2]) was 20 nM, the IC50 (HPAFII-MUC1*) was 62 nM and the IC50 (DU-145 [3]) was 160 nM. The “growth of T47D xenograft tumors” value (T47D xenograft tumors) was “inhibit the growth”, the IC50 (T47D [4]) was 153 nM and the IC50 (T47D-MUC1* [5]) was 6.2 nM. For the same molecule, the IC50 (HPAF-II MUC1*) was 72 nM, the IC50 (H1975) was 19 nM and the “growth of T47D-MUC1* xenograft tumors” value [6] was “inhibit the growth”. For the same molecule, the IC50 (T47D-MUC1* 15% [7]) was 25 nM, the IC50 (T47D-MUC1* [8]) was 8 nM and the IC50 (NCI-H1975) was 207 nM. The IC50 (DU-145 [9]) was 163 nM.
